# Experimental data published in the supplement of paper PMC9732359.
# ± gives the uncertainty stated by the source.
# Assay: protein stability index of a GFP-peptide fusion (yeast GPS) (PSI 1-4); higher = more stable; sorted into four equal gates, so the index is relative within each strain
# Conditions: doa10∆
# Procedure, shortened: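 Each library plasmid carries Cherry plus GFP with a tiled 17-residue yeast protein peptide fused downstream, and the pooled library was carried in yeast. Mid-log cultures in leucine-free medium were sorted into four equal gates by GFP/Cherry ratio. Reads from Illumina sequencing of PCR-amplified plasmids from each gate were assigned to strains by barcodes. Per peptide, the protein stability index was computed as the summed products of gate read frequency and gate number.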
row,Sequence,protein stability index
1,GTPLQNNLHELWALLNF [ISW2],2.76 ± 0.045
2,GVDNLRRMGILKKILDQ [RPO31],2.48 ± 0.1
3,GVEVRVTPTKTEVIIRA [RPS3],1.75 ± 0.048
4,GVIIKVEESGEHVILGN [SNU114],2.65 ± 0.12
5,GVKDCQEGLITTTMLQL [SSN2],2.46 ± 0.083
6,GVNGYIWLRKTSQMDLA [RRP4],3.07 ± 0.077
7,GVQSNGDQFLRYVNLLG [PRE4],2.6 ± 0.073
8,GVSLLALWKEKKEKPRS [RPS23A],3.12 ± 0.089
9,GVVVLRDREPKEPVALI [RPN2],3.5 ± 0.1
10,GVYSDDELLSQLDLCKL [SRP68],3.09 ± 0.063
11,GYCDDIAAMVAQKCGWT [SIR2],1.76 ± 0.11
12,GYDDFQEEGSFEFGNMK [FAS2],3.48 ± 0.14
13,GYDINYISKIGEKIDSN [SWI1],3.2 ± 0.11
14,GYLFKVSALDKCIKYSE [ECM29],3.08 ± 0.13
15,GYLITPPKHTELLLTTL [SSN2],1.85 ± 0.062
16,GYMQKPVYATIGVETGS [PRP28],1.47 ± 0.25
17,HADKDTFSSSISTYIST [POP8],2.61 ± 0.045
18,HAQSKREGRHSGYGKRK [RPL19A],2.8 ± 0.086
19,HARARGPRAVLTRQPTE [RET1],3.28 ± 0.11
20,HARGGGAISAVAATNTP [SRP54],1.69 ± 0.12
21,HCDKCSVVLTLQAFGES [RPB3],3.1 ± 0.15
22,HDIIEGINAGEIEIPEN [RPL12A],2.75 ± 0.071
23,HDISRYVRAKFLDYTTD [PRP8],2.23 ± 0.066
24,HDNHGNKLGNKRLTEDE [CDC53],2.51 ± 0.091
25,HEEDQKTNIIEKAMDYA [RPN12],2.52 ± 0.087
26,HEIITVGPHFKQANNFL [RPL7A],2.45 ± 0.062

row,Sequence,protein stability index
1,HEVEEILNELQPNARAL [SMC1],3.09 ± 0.13
2,HFKKPDITVHGEQIIVH [RRP45],1.43 ± 0.14
3,HGILDDLETSLSQSSSY [MED2],2.98 ± 0.083
4,HGSIIILGMLSLADNEI [YCS4],1.99 ± 0.069
5,HGTYFLDNMTYSSVAGT [RRP4],2.21 ± 0.051
6,HGVLQGTSQNYGTATAD [MED1],3.2 ± 0.091
7,HHSWSQSDLEIITQYVF [ARP9],2.29 ± 0.051
8,HIEGVVILKKNPDYREE [RPN1],2.89 ± 0.086
9,HIKFSAGTEANAVSFDT [SRB4],1.98 ± 0.068
10,HIMEPCIECQPKAMTDT [HRT1],3.13 ± 0.13
11,HKMGVERSSKRLAKKPS [SIR3],3.33 ± 0.064
12,HKPNEGRTPNISNGTIN [SIR4],2.92 ± 0.071
13,HLEALQPLFSTVPEYLK [PGD1],1.51 ± 0.039
14,HLIFSNARIYNTEGSVV [SNF2],3 ± 0.12
15,HLKILASSNFPFLNETK [RPC82],2.52 ± 0.055
16,HLLPAFLKVKGLVKQHL [RET1],3.2 ± 0.22
17,HLRKLLDGELDFDDFLK [RET1],3.04 ± 0.16
18,HLRVRVHPFHVLRINKM [RPL10],1.12 ± 0.09
19,HLVWMKGTNDEGTSISV [YCS4],1.84 ± 0.11
20,HNKLIQFGNACISLSGV [SSN2],2.45 ± 0.11
21,HNMKAYYKKFLIEPLPT [BRR2],1.26 ± 0.055
22,HPAHVMWSVARAGQRGY [RPL3],1.68 ± 0.2
23,HPIRVLMASVILDSLPS [YDL116W/NUP84],1.7 ± 0.051
24,HQGSGGSVMSASVEIVF [SMC3],2.05 ± 0.11
25,HRTIVIRRAYLHYIPKY [RPS11A],1.87 ± 0.048
26,HTEDEQIEKKKICRGRM [SIR4],3.52 ± 0.17
